Data from JP2007175055A (dated 2007).

Tests used:
[1] = biological target: T1, human CD4 V1 polypeptide (AA1-AA113 and/or AA1-AA111) (human, UniProt P01730 26-138); assay: RIA: CD4-V1 competing with 125I-rsCD4 for immobilised antibody
T1 construct: range 1-113; also called CD4 VI

[2] = biological target: human CD4 V1V2 polypeptide (AA1-AA180) (human, UniProt P01730 26-205); assay: RIA: CD4-V1V2 (5 ug/ml) competing with 125I-rsCD4 for immobilised antibody
[3] = biological target: T2, rhesus monkey CD4 on circulating and lymph node CD4+ cells (rhesus monkey, UniProt P16003 26-458); assay: FACS of rhesus monkey blood cells, indirect staining
T2 construct: whole, on cells; also called アカゲザルCD4+細胞

[4] = biological target: T3, human CD4 on the cell surface (human, UniProt P01730 26-458); assay: FACS: H9 cells pre-incubated with 10 ug r-gp120; competitors Leu3A and OKT4A
T3 construct: whole, on cells; also called cell surface CD4; CD4+ cells

[5] = biological target: T4, recombinant soluble human CD4 (AA1-AA375, V1-V4) (human, UniProt P01730 26-400); assay: affinity column of human rsCD4 on Affi-Gel 10
T4 construct: range 1-375; also called rsCD4

T2 sequence (P16003 26-458): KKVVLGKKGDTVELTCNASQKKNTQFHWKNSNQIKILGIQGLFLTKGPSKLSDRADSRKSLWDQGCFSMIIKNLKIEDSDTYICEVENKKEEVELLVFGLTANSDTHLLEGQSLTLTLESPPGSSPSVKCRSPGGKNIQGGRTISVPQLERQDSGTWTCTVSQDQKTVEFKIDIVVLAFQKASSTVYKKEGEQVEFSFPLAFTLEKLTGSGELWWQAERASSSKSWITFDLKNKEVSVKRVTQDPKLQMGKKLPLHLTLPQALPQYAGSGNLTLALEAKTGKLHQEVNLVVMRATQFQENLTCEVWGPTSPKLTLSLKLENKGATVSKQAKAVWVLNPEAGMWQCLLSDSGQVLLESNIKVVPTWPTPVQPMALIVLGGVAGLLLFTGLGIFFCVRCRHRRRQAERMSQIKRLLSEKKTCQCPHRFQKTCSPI

Row | Binder | binding result [1] | binding result [2] | binding result [3] | binding result [4] | binding result [5]
1 | mouse monoclonal antibody 5A8 (antibody, V domains shown, also called 5A8-2F6; hybridoma ATCC HB 10881 (IVI-10257)) VH: EVKLQESGPELVKPGASVKMSCKASGYTFTSYVIHWVRQKPGQGLDWIGYINPYNDGTDYDEKFKGKATLTSDKSSSTAYMELSSLTSEDSAVYYCAREKDNYATGAWFAYWGQGTTVTVSS VL: DIVMTQSPSSLAVSVGEKVTMICKSSQSLLYSTNQKNYLAWYQQKPGQSPKLLIYWASTRESGVPDRFTGSGSGTDFTLTISSVKAEDLAVYYCQQYYSYRTFGGGTKLEIK | no binding (tested: 5μg/ml) | binds | binds |  | 
2 | soluble recombinant HIV gp120 (baculovirus) (ligand, also called r-gp120; HIV r-gp120) not shown |  |  |  | binds | binds
